From US20240287489A1, “CHITINOLYTIC ENZYME-BASED PLANT PROTECTION AGENTS” (GLOBACHEM NV, priority 2021, published 2024) come the findings set out here.

“Also recorded” adds a separate entry of the source.

A short description of data set [1]: Temperature, pH and NaCl optima and temperature stability of recombinant chitinases (reducing end assay). Format: biochemical. The protocol: All enzymes were first characterized regarding their temperature and pH-optima as well as the optimum NaCl content as the enzymes were isolated from a sea-water microorganism. As the future intention is to integrate these novel enzymes in a degradation processes of natural chitin, all parameters were determined using chitin powder as a substrate instead of pre-treated analogs such as colloidal chitin, glycol chitin or artificial fluorogenic substrates. […] (FIG. 5A). Next, enzyme temperature stability was investigated (FIG. 51). […] Enzyme C1 retained a 50% residual activity after 240 min incubation at 60° C., while the activity of the other chitinases dropped below 50% after 15 min and remained on that level.
Given the marine origin of the P. orarium strain, the effect of salt was also evaluated, testing the addition of NaCl to the standard buffer. […] Increasing NaCl amounts up to 20% (w/v) reduced enzyme activity substantially to 10% for C2, 4 and 5, with C1 and C3 showing highest tolerance (65% activity).
For the determination of enzymatic activity of recombinant chitinases, a reducing end assay was carried out [Svein et al., Carbohydr Polym, 2004. 56(1): p. 35-39.]. Fractions containing chitinases were incubated with 5% (w/v) chitin powder extracted from shrimp shells (˜400.000 g/mol; Carl Roth) in MAT buffer for 2 h in an overhead shaker at ambient temperature (standard conditions). Samples were centrifuged at 13000×g for 2 min and 40 μl of the supernatant was mixed with 40 μl 0.5 M NaOH and 40 μL of a reagent containing 1.5 mg/ml 3-Methyl-2-benzothiazolinonhydrazon and 0.75 mg/ml Dithiothreitol. Samples were incubated at 80° C. for 15 min and then thoroughly mixed with 80 μl of 0.5% (w/v) FeNH4(SO4)2)×12H2O, 0.5% (w/v) sulfamic acid and 0.25 M HCl. After cooling down to room temperature, 100 μl of the samples were measured at 620 nm. A calibration curve of N-acetyl-glucosamine was constructed freshly for each measuring cycle. One unit [U] was defined as the amount of enzyme required to release 1 μmol of reducing sugars per hour.
(§1) Enzyme samples were incubated at different temperature (10-60° C., 10° C. increment) and pH (4-11, increment 1) using different buffer systems (Acetate, Tris-HCl, MES, total molar concentration 100 mM), as well as NaCl content (0, 1. 2.5, 5, 10 and 20% w/v) to determine optimum reaction conditions. All experiments were carried out at 1.0 ml scale using 2 μM of the respective enzymes and a 5% (wv) suspension of chitin powder extracted from shrimp shells (˜400.000 g/mol; Carl, Roth) in 100 mM MAT buffer. For the determination of the substrate specificity, chitin powder (5% w/v), glycol chitin (10% v/v), colloidal chitin (5% w/v), chitosan [DA 15-25%, medium molecular weight, Sigma-Aldrich] (5% w/v) and microcrystalline cellulose powder (Sigma Aldrich) (5% w/v) were investigated, respectively. The effect of several potential co-factors on activity was elucidated at a concentration of 1 mM. Additionally, the effect of detergents [SDS 0.5% (w/v), Tween-20 and Triton X-100 both at 0.5% (v/v)] and chemicals (Imidazole 100 mM, EDTA 1 mM) on enzymatic activity was assessed. Samples were incubated in a thermomixer for 16 h at 900 rpm. After incubation, samples were analyzed using the enzyme assay. Thermostability was assessed after incubation of recombinant chitinases at 60° C. for different durations followed by the quantification of residual enzyme activity under standard assay conditions.

Data set [2] is described as follows: Substrate specificity, reducing end assay. The following applies: in % activity of chitin powder; 16 h at optimum conditions, 50 mg/ml substrate. The format is biochemical. The protocol:
(§2) Different chitinous substrates were tested to assess the substrate affinity of the novel chitinases relative to untreated chitin powder. […] As expected, the conversion of colloidal chitin is more efficient compared to chitin powder as it provides an overall smaller particle size and thereby larger surface area. Chitosan powder (degree of acetylation: 15%) was also degraded efficiently and high chitosanase activity was observed especially for C1, C3, C4 and C5. Merely basal activity was detected when cellulose was utilized as a substrate for all enzymes.
as §1

The nature of data set [3]: Substrate specificity, reducing end assay. Format: biochemical. The following applies: in % activity of chitin powder; 16 h at optimum conditions, 50 mg/ml substrate. Here is the method:
as §2
The preparation of colloidal chitin was similar to the method described by Murthy and Bleakley with some minor differences [Murthy et al., Microbiol., 2012. 10(2): p. 1-5.]. Chitin powder (Carl Roth) was dissolved in concentrated hydrochloric acid (HCl) (5 g in 100 mL) and stirred at 4° C. for 24 h, after which the mixture was centrifuged at 4000×g for 15 min at 4° C. The precipitate was washed to neutral pH with distilled water and stored at 4° C.
as §1
The source holds these as a separate data set.

Data set [4] is described as follows: TLC analysis of cleavage patterns with chitin standard molecules. Format: biochemical. Here is the method: monomeric oligomers. Chitosan was degraded to a crude mixture of multiple oligomers ranging from dimers to pentamers and even larger undefined yet water-soluble fragments that migrated slightly from the starting point. Further analysis of the cleavage patterns was carried out using chitin standard molecules of DP2-DP6 and incubating them at 4 mg/ml concentration with the individual enzymes (FIG. 9).
Dimeric chitin molecules were not converted by any of the enzymes. […] All chitinases degraded chitin tetramers to dimers as a single product. […] Chitin hexamers were degraded to dimers and trimers. Although all chitinases are different in their structure and present different glycosyl hydrolase domains hydrolysis products in general were similar.
C2, 4 and 5 yielded similar product patterns when incubated with insoluble substrates. […] The presented data underline that the novel chitinases are all suited for the degradation of powdery chitin without any further harsh chemical pre-treatment.
Hydrolysis products were analyzed using 10×10 cm TLC Silica gel 60 F254 plates (Merck, Darmstadt, Germany) and a mixture of butanol:methanol:25% ammonia:H2O (5:4:2:1) as mobile phase. A total sample volume of 0.5 μl was applied in 0.25 μl spots. Chitin standard sugars (Megazyme, Chicago, USA) (5 mg/ml) were applied to the plate (0.5 μL in 0.25 μL spots) as size standard for the determination of the DP. After separation, the plate was air-dried and the developing solution (200 ml Acetone, 30 ml phosphoric acid (85%), 4 ml aniline, 4 g diphenylamine) was sprayed on the plate followed by spot visualization at 300° C. using a heat gun.

In a further data set the test system is Septoria tritici. The experiment in a line: Minimum inhibitory concentration (MIC) test on fungal pathogens. The format is cell-based. Also noted: key: xx = no growth/strong inhibition; x = small inhibition. The note with it: start concentration 100 μg/ml.

B1: Chitinase 5: chitinolytic enzyme from P. orarium, SEQ ID NO: 5, recombinant with PelB signal peptide and 6×His tag (protein, listed as Photobacterium orarium)
chain: MAMGWSQININGVQKWEEAYSLNVDAANEIITIGAADTAGALYASQSLLQLVDGNKVPEVQITDAPRFAYRGFSVDAVRNFRTKDAIIQLLDQMAAFKLNKLHLRLADDEGWRIEIAGLPELTDVGATRCHDPEEKACILPFLGAGPDGSPESNGYYTATDYQDILSHAAALNIEVVPEIDIPGHAHAAIKAMEARYDHYAAQGNMAEANKYLLTDFNDTTQYLSVQMFTDNAINVCMESSYNFVDAVVSGLVSLHQGVQPLKTFHFGGDEIAGAWINSPACQDFIANNTDGVHSVSDLSRYFVERISVITANYGLDMAGWEDGLMHDGQVYPRSQMANNQLWGNAWQNIWEWGVADRAYNLANNDYKVVYNHATHLYFDHPYEPDPNERGYYWAPRFTDTRKTFGFMPDDVFANADFTRAGAPITKAEVVASAGVKKLLKPENVLGLQGSLWAEAVRTEDQFEGMIFPRVLGLAERAWHTATWEANDNAGIALDETGRNADYNHFANLLGQKVLPKLEQAGIAFNLPVPGGVIENGVLQANSTFPGLTIEYSTDQGTSWQSYDHLNPPAVAAGVQLRTVSGQRTSRVTTVNIE
modifications: PelB signal peptide; 6xHis tag; Chitinase 5
With B1, the “enzyme activity (relative)” value in data set [1] (20% (w/v) NaCl, pH 8, 30° C.) is recorded as 10%. In addition, the “Optimum pH” value in data set [1] (chitin powder, 30° C., pH 4-11, listed as C5) was 9. In data set [1] (chitin powder, pH 8, 30° C., 0-20% w/v NaCl), the Optimum salinity was determined as 0 % NaCl. Also, in data set [2], the “Relative activity, Cellulose” value stood at 11.2 ± 1.1%; the “Relative activity, Chitin” value was 100%; the “Relative activity, Chitosan” value was 117.8 ± 1.7%. For the same molecule, the “Relative activity, Colloidal chitin” value in data set [3] came to 164.1 ± 2.8%. For the same molecule, in data set [4] (4 mg/ml, 16 h, TLC), the “hydrolysis products from chitin pentamers” value is “trimers and dimers”; the “hydrolysis products from chitin trimers” value is reported as “no activity”. The “cleavage mechanism (exo-/endo-chitinase activity)” value in data set [4] (TLC of products from oligomeric or polymeric chitin substrates, listed as C5) is “no exochitinase activity; also recorded: endo-chitinase activity”. In the data set with Septoria tritici, the “growth inhibition of Septoria tritici in the MIC test” value is on record as “xx”.
